One experiment deals with HLA-A*26:01. The experiment in a line: IEDB peptide-MHC binding, purified MHC/competitive/fluorescence; filed as Kd, often an IC50 or EC50 that approximates it; ≥ and ≤ were set here for values at or beyond the usual limits of such assays. Particulars: source organism: Salmonella enterica subsp. enterica serovar Typhi.
A further experiment deals with HLA-C*06:02. The description is as above. The note with it: source organism: Salmonella enterica subsp. enterica serovar Typhi.
In another experiment the target is HLA-A*03:19. Described as above. The note with it: source organism: Salmonella enterica subsp. enterica serovar Typhi.
The target in the next experiment is HLA-A*02:06. The experiment is described as above. Particulars: source organism: Salmonella enterica subsp. enterica serovar Typhi.
The target of the next experiment is HLA-B*44:02. The description is as above. Particulars: source organism: Salmonella enterica subsp. enterica serovar Typhi.
For the next experiment, the target named is HLA-A*69:01. The description is as above. The note with it: source organism: Salmonella enterica subsp. enterica serovar Typhi.
The target in the next experiment is HLA-A*29:02. Described as above. The note with it: source organism: Salmonella enterica subsp. enterica serovar Typhi.
Another experiment deals with HLA-B*15:17. Described as above. The note with it: source organism: Salmonella enterica subsp. enterica serovar Typhi.
The target of the next experiment is HLA-B*15:42. Described as above. Particulars: source organism: Salmonella enterica subsp. enterica serovar Typhi.
The next experiment deals with HLA-A*02:03. The description is as above. Particulars: source organism: Salmonella enterica subsp. enterica serovar Typhi.
The target in another experiment is HLA-A*11:01. The description is as above. Particulars: source organism: Salmonella enterica subsp. enterica serovar Typhi.
For the next experiment, the target named is HLA-B*40:01. Described as above. Particulars: source organism: Salmonella enterica subsp. enterica serovar Typhi.
In a further experiment the target is HLA-A*68:23. Described as above. Particulars: source organism: Salmonella enterica subsp. enterica serovar Typhi.
Another experiment deals with HLA-A*03:01. The description is as above. Particulars: source organism: Salmonella enterica subsp. enterica serovar Typhi.
The target in the next experiment is HLA-A*30:01. Described as above. The note with it: source organism: Salmonella enterica subsp. enterica serovar Typhi.
The next experiment concerns the target HLA-A*02:01. Described as above. Particulars: source organism: Salmonella enterica subsp. enterica serovar Typhi.
Another experiment has as its target HLA-B*51:01. The description is as above. Particulars: source organism: Salmonella enterica subsp. enterica serovar Typhi.
For another experiment, the target named is HLA-B*45:06. The experiment is described as above. The note with it: source organism: Salmonella enterica subsp. enterica serovar Typhi.
The next experiment has as its target HLA-A*31:01. Described as above. The note with it: source organism: Salmonella enterica subsp. enterica serovar Typhi.
The target of the next experiment is HLA-A*25:01. Described as above. Particulars: source organism: Salmonella enterica subsp. enterica serovar Typhi.
For the next experiment, the target named is HLA-B*27:05. The description is as above. Particulars: source organism: Salmonella enterica subsp. enterica serovar Typhi.
The target in the next experiment is HLA-C*14:02. Described as above. The note with it: source organism: Salmonella enterica subsp. enterica serovar Typhi.
In another experiment the target is HLA-B*15:09. The description is as above. The note with it: source organism: Salmonella enterica subsp. enterica serovar Typhi.
For another experiment, the target named is HLA-C*15:02. The experiment in a line: IEDB peptide-MHC binding, purified MHC/direct/fluorescence; filed as Kd, often an IC50 or EC50 that approximates it; ≥ and ≤ were set here for values at or beyond the usual limits of such assays. The note with it: source organism: Salmonella enterica subsp. enterica serovar Typhi str. CT18.

We go through one sequence from the Immune Epitope Database (IEDB).

pKd: −log10 of the molar value. Bounds are passed on as bounds.

By pKd is commonly meant the Kd on a negative log10 scale, so that one unit is a factor of ten. Lower therefore signals a large Kd. Consider SVIDHIHYM, for which the pKd in the experiment with HLA-A*26:01 is 9.55; with HLA-C*06:02, 7.59; with HLA-A*03:19 it was 6.01; with HLA-A*02:06, not below 9.00; with HLA-B*44:02, not above 4.70; in the experiment with HLA-A*69:01 it was 9.22. Moreover, the pKd in the experiment with HLA-A*29:02 is 8.92; with HLA-B*15:17 it was 7.30; with HLA-B*15:42 it was not above 5.30; with HLA-A*02:03, 8.51; in the experiment with HLA-A*11:01, 7.14; with HLA-B*40:01, not above 4.70. Besides, the pKd was 9.70 with HLA-A*68:23; not above 4.70 in the experiment with HLA-A*03:01; not above 4.70 in the experiment with HLA-A*30:01; 8.31 with HLA-A*02:01; not above 4.70 in the experiment with HLA-B*51:01; not above 5.30 in the experiment with HLA-B*45:06. In addition, the pKd with HLA-A*31:01 was 6.64; with HLA-A*25:01 it was 7.86; with HLA-B*27:05, not above 4.70; in the experiment with HLA-C*14:02, 7.42; in the experiment with HLA-B*15:09, not above 4.70; in the experiment with HLA-C*15:02 it was 7.02.
